Key:
[1] = biological target: human HVEM (wild type) expressed on cells (human) (UniProt Q92956); experiment: flow cytometry saturation binding on 293T cells transfected with wild type HVEM
[2] = biological target: human HVEM mutant E65A expressed on cells (human) (UniProt Q92956); experiment: flow cytometry saturation binding on 293T cells transfected with mutant HVEM
[3] = biological target: human HVEM mutant R62A expressed on cells (human) (UniProt Q92956); experiment: as above
[4] = biological target: human HVEM mutant R113A expressed on cells (human) (UniProt Q92956); experiment: as above
[5] = biological target: human HVEM mutant S58A expressed on cells (human) (UniProt Q92956); experiment: as above
[6] = biological target: human HVEM mutant Y47F expressed on cells (human) (UniProt Q92956); experiment: as above
[7] = biological target: human HVEM mutant Y61F expressed on cells (human) (UniProt Q92956); experiment: as above
[8] = biological target: human HVEM mutant E76A expressed on cells (human) (UniProt Q92956); experiment: as above
[9] = biological target: human HVEM mutant K64A expressed on cells (human) (UniProt Q92956); experiment: as above
Sequence of human HVEM mutant K64A expressed on cells (human) (Q92956 39-283 K64A): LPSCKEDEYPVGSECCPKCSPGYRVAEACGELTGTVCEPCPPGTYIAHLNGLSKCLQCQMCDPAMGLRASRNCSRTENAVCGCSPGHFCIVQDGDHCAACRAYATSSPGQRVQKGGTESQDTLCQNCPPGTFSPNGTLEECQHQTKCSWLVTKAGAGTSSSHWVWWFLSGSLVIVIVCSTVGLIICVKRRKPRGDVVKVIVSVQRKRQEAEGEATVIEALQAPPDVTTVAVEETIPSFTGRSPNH

Sequence of human HVEM mutant E76A expressed on cells (human) (Q92956 39-283 E76A): as the sequence (Q92956 39-283 K64A) above, with A26K, E38A counted along it
Sequence of human HVEM mutant Y47F expressed on cells (human) (Q92956 39-283 Y47F): as the sequence (Q92956 39-283 K64A) above, with Y9F, A26K counted along it
Sequence of human HVEM mutant S58A expressed on cells (human) (Q92956 39-283 S58A): as the sequence (Q92956 39-283 K64A) above, with S20A, A26K counted along it
Sequence of human HVEM mutant R113A expressed on cells (human) (Q92956 39-283 R113A): as the sequence (Q92956 39-283 K64A) above, with A26K, R75A counted along it
Sequence of human HVEM mutant Y61F expressed on cells (human) (Q92956 39-283 Y61F): as the sequence (Q92956 39-283 K64A) above, with Y23F, A26K counted along it
Sequence of human HVEM mutant E65A expressed on cells (human) (Q92956 39-283 E65A): as the sequence (Q92956 39-283 K64A) above, with A26K, E27A counted along it
Sequence of human HVEM (wild type) expressed on cells (human) (Q92956 39-283): as the sequence (Q92956 39-283 K64A) above, with A26K counted along it
Sequence of human HVEM mutant R62A expressed on cells (human) (Q92956 39-283 R62A): as the sequence (Q92956 39-283 K64A) above, with R24A, A26K counted along it

Kd [1]: 13 nM
Kd [2]: 18 nM
Kd [3]: 17 nM
Kd [4]: 18 nM
Kd [5]: 19 nM
Kd [6]: 14 nM
Kd [7]: 17 nM
Kd [8]: 22 nM
Kd [9]: 14 nM
B1: recombinant soluble human LIGHT truncated at G66 (ligand, from a related filing)
chain: GEMVTRLPDGPAGSWEQLIQERRSHEVNPAAHLTGANSSLTGSGGPLLWETQLGLAFLRGLSYHDGALVVTKAGYYYIYSKVQLGGVGCPLGLASTITHGLYKRTPRYPEELELLVSQQSPCGRATSSSRVWWDSSFLGGVVHLEAGEEVVVRVLDERLVRLRDGTRSYFGAFMV
